From the Immune Epitope Database (IEDB) come the findings set out here.

pIC50: −log10 of the molar value.

Common to all, as to conditions: source organism: Influenza A virus
Assay [1] concerns the target HLA-B*18:01. Nature of the assay: IEDB peptide-MHC binding, purified MHC/competitive/fluorescence; ≥ and ≤ were set here for values at or beyond the usual limits of such assays.
The target in assay [2] is HLA-B*40:01. The description is as above.
Assay [3] deals with HLA-B*44:02. Described as above.
Assay [4] has as its target HLA-B*44:03. The description is as above.
Assay [5] addresses HLA-B*40:02. Nature of the assay: IEDB peptide-MHC binding, purified MHC/competitive/radioactivity; ≥ and ≤ were set here for values at or beyond the usual limits of such assays.
In assay [6] the target is HLA-B*45:01. The description is as above.
Assay [7] has as its target HLA-B*40:02. The assay is described as follows: IEDB peptide-MHC binding, purified MHC/competitive/fluorescence; ≥ and ≤ were set here for values at or beyond the usual limits of such assays.
Assay [8] has as its target HLA-B*45:01. The description is as above.
Assay [9] addresses HLA-B*44:02. The assay is described as follows: IEDB peptide-MHC binding, purified MHC/competitive/radioactivity; ≥ and ≤ were set here for values at or beyond the usual limits of such assays.
Assay [10] concerns the target HLA-B*44:03. The description is as above.
The target of assay [11] is HLA-B*40:01. The description is as above.
Assay [12] addresses HLA-A*26:01. Nature of the assay: IEDB peptide-MHC binding, purified MHC/competitive/fluorescence; ≥ and ≤ were set here for values at or beyond the usual limits of such assays.
Assay [13] concerns the target HLA-A*30:02. Described as above.
Assay [14] deals with HLA-A*01:01. The assay is described as follows: IEDB peptide-MHC binding, purified MHC/competitive/radioactivity; ≥ and ≤ were set here for values at or beyond the usual limits of such assays.
Assay [15] deals with HLA-A*29:02. The description is as above.
Assay [16] has as its target HLA-A*02:02. The assay is described as follows: IEDB peptide-MHC binding, purified MHC/competitive/fluorescence; ≥ and ≤ were set here for values at or beyond the usual limits of such assays.
Assay [17] addresses HLA-A*02:06. The assay is described as above.
The target of assay [18] is HLA-A*02:01. The assay is described as follows: IEDB peptide-MHC binding, purified MHC/competitive/radioactivity; ≥ and ≤ were set here for values at or beyond the usual limits of such assays.
Assay [19] addresses HLA-A*02:03. Described as above.
Assay [20] deals with HLA-B*18:01. The assay is described as above.
The target of assay [21] is HLA-A*02:02. The description is as above.
Assay [22] has as its target HLA-A*02:06. Described as above.
For assay [23], the target named is HLA-A*68:02. The assay is described as above.
Assay [24] addresses HLA-A*02:01. Nature of the assay: IEDB peptide-MHC binding, purified MHC/competitive/fluorescence; ≥ and ≤ were set here for values at or beyond the usual limits of such assays.
Assay [25] has as its target HLA-A*68:02. The assay is described as above.
The target in assay [26] is HLA-A*03:01. The assay is described as follows: IEDB peptide-MHC binding, purified MHC/competitive/radioactivity; ≥ and ≤ were set here for values at or beyond the usual limits of such assays.
Assay [27] concerns the target HLA-A*31:01. The description is as above.
Another assay addresses HLA-A*23:01. Described as above.
The next assay deals with HLA-A*24:02. The description is as above.
The target in assay [28] is HLA-A*02:03. The assay is described as follows: IEDB peptide-MHC binding, purified MHC/competitive/fluorescence; ≥ and ≤ were set here for values at or beyond the usual limits of such assays.
The target in assay [29] is HLA-A*33:01. The description is as above.
Assay [30] has as its target HLA-A*03:01. Described as above.
For assay [31], the target named is HLA-A*11:01. The assay is described as above.
For assay [32], the target named is HLA-A*33:01. Nature of the assay: IEDB peptide-MHC binding, purified MHC/competitive/radioactivity; ≥ and ≤ were set here for values at or beyond the usual limits of such assays.
Assay [33] addresses HLA-A*68:01. Described as above.
The target of assay [34] is HLA-A*11:01. The assay is described as above.
For assay [35], the target named is HLA-A*01:01. Nature of the assay: IEDB peptide-MHC binding, purified MHC/competitive/fluorescence; ≥ and ≤ were set here for values at or beyond the usual limits of such assays.
Assay [36] concerns the target HLA-A*26:01. The assay is described as follows: IEDB peptide-MHC binding, purified MHC/competitive/radioactivity; ≥ and ≤ were set here for values at or beyond the usual limits of such assays.
The target of assay [37] is HLA-A*30:02. The assay is described as above.
For assay [38], the target named is HLA-A*31:01. The assay is described as follows: IEDB peptide-MHC binding, purified MHC/competitive/fluorescence; ≥ and ≤ were set here for values at or beyond the usual limits of such assays.
Assay [39] concerns the target HLA-A*68:01. Described as above.
In assay [40] the target is HLA-A*29:02. Described as above.

In the case of AEIMKICST, the negative-log IC50 (pIC50) (as a rule, the IC50 on a negative log10 scale, so that one unit is a factor of ten) with HLA-B*18:01 [1] is 4.55; with HLA-B*40:01 [2] it was 4.47; with HLA-B*44:02 [3], 5.29; in the assay with HLA-B*44:03 [4], 4.93; with HLA-B*40:02 [5] it was 7.89; in the assay with HLA-B*45:01 [6], 6.86.

Consider AEKPKFLPDLY, for which the pIC50 in the assay with HLA-B*18:01 [1] is 4.46; with HLA-B*40:01 [2], 4.96; with HLA-B*40:02 [7], 5.32; with HLA-B*45:01 [8], 5.53; with HLA-B*44:02 [9] it was 6.39; in the assay with HLA-B*44:03 [10], 5.84.

For AESRKLLLI, the pIC50 in the assay with HLA-B*18:01 [1] is 4.48; in the assay with HLA-B*40:01 [11], 6.27; with HLA-B*40:02 [5], 6.66; with HLA-B*44:02 [9], 7.26; in the assay with HLA-B*44:03 [10], 6.75; with HLA-B*45:01 [6], 6.78.

Turning to ALASCMGLIY, the pIC50 in the assay with HLA-A*26:01 [12] is 5.66; with HLA-A*30:02 [13], 5.60; with HLA-A*01:01 [14] it was 6.00; with HLA-A*29:02 [15], 7.92.

For ALQLLLEV, the pIC50 with HLA-A*02:02 [16] was 5.84; in the assay with HLA-A*02:06 [17], 5.66; in the assay with HLA-A*02:01 [18] it was 6.18; in the assay with HLA-A*02:03 [19], 6.59.

CEKLEQSGL: the pIC50 was 4.37 with HLA-B*18:01 [1]; 5.83 with HLA-B*40:01 [2]; 5.53 with HLA-B*44:03 [4]; 6.79 with HLA-B*40:02 [5]; 6.81 in the assay with HLA-B*44:02 [9]; 6.44 with HLA-B*45:01 [6].

Regarding CELTDSSWI, the pIC50 in the assay with HLA-B*18:01 [1] is 4.25; in the assay with HLA-B*40:02 [7], 5.85; in the assay with HLA-B*40:01 [11], 6.05; in the assay with HLA-B*44:02 [9], 7.46; in the assay with HLA-B*44:03 [10] it was 6.79; with HLA-B*45:01 [6], 6.86.

On to FEDLRVSSF, for which the pIC50 with HLA-B*40:01 [2] was 4.89; with HLA-B*40:02 [7], 5.88; in the assay with HLA-B*44:03 [4], 5.05; with HLA-B*18:01 [20] it was 7.23; with HLA-B*44:02 [9] it was 6.40.

Regarding FESKSMKL, the pIC50 was 5.60 with HLA-B*18:01 [1]; 5.91 with HLA-B*40:01 [2]; 4.63 with HLA-B*44:02 [3]; 4.18 with HLA-B*44:03 [4]; 4.27 with HLA-B*45:01 [8]; 6.67 with HLA-B*40:02 [5].

With FNMLSTVLGV, the pIC50 in the assay with HLA-A*02:01 [18] is 7.82.

Take FSMELPSFGV: in the assay with HLA-A*02:01 [18], the pIC50 was 8.02.

As for FVEALARSI, the pIC50 with HLA-A*02:02 [21] was 7.46; with HLA-A*02:03 [19] it was 6.34; with HLA-A*02:06 [22], 6.18; with HLA-A*68:02 [23], 6.01.

With GLIYNRMGA, the pIC50 with HLA-A*02:02 [16] was 5.18; with HLA-A*02:06 [17] it was 4.59; with HLA-A*02:03 [19], 6.56.

With ILGFVFTL, the pIC50 is 8.59 with HLA-A*02:02 [21], 7.96 with HLA-A*02:03 [19] and 6.50 with HLA-A*02:06 [22].

As for ILSPLTKGIL, the pIC50 is 4.98 with HLA-A*02:01 [24]; 4.58 with HLA-A*02:06 [17]; 4.88 with HLA-A*68:02 [25]; 6.80 in the assay with HLA-A*02:02 [21]; 6.89 with HLA-A*02:03 [19].

In the case of ITFMQALQLL, the pIC50 in the assay with HLA-A*02:06 [17] is 5.09; with HLA-A*02:02 [21] it was 6.90; in the assay with HLA-A*02:03 [19], 6.07; with HLA-A*68:02 [23], 6.12.

Regarding KTRPILSPLTK, the figures for the pIC50 in the assay with HLA-A*03:01 [26] and with HLA-A*31:01 [27] were 7.02 and 7.15, respectively.

On to LLFLKVPA, for which the pIC50 with HLA-A*02:06 [17] was 4.88; with HLA-A*68:02 [25], 4.64; with HLA-A*02:02 [21], 6.88; in the assay with HLA-A*02:03 [19], 6.55.

Consider LYRKLKREITF, for which the pIC50 with HLA-A*23:01 was 6.71; with HLA-A*24:02 it was 6.69.

For QIAILVTTV, the pIC50 with HLA-A*68:02 [25] was 5.65; with HLA-A*02:02 [21] it was 6.82; with HLA-A*02:03 [19], 7.14; with HLA-A*02:06 [22] it was 6.16.

As for QLMWALGENMA, the pIC50 is 5.87 with HLA-A*02:03 [28], 4.61 with HLA-A*02:06 [17], 5.64 with HLA-A*68:02 [25] and 6.45 with HLA-A*02:02 [21].

For QLVWMACHSAA, the pIC50 is 5.56 with HLA-A*02:02 [16], 4.67 in the assay with HLA-A*68:02 [25] and 6.45 in the assay with HLA-A*02:03 [19].

In turn, RMVLASTTAK showed a negative logarithm of the IC50 (pIC50) in the assay with HLA-A*33:01 [29] of 5.23.

Consider RMVLSAFDER, for which the pIC50 in the assay with HLA-A*03:01 [30] is 5.23; with HLA-A*11:01 [31] it was 5.65; with HLA-A*31:01 [27], 6.47; with HLA-A*33:01 [32], 6.05; with HLA-A*68:01 [33] it was 6.20.

In the case of RTMAWTVVNSI, the negative-log IC50 (pIC50) is 5.35 in the assay with HLA-A*02:06 [17], 5.82 with HLA-A*68:02 [25], 6.90 with HLA-A*02:02 [21] and 7.15 with HLA-A*02:03 [19].

Turning to SFSFGGFTFK, the pIC50 in the assay with HLA-A*03:01 [26] is 6.73; with HLA-A*11:01 [34], 6.80; in the assay with HLA-A*31:01 [27], 7.09; with HLA-A*33:01 [32], 6.77; in the assay with HLA-A*68:01 [33], 6.37.

SWPDGAELPF: the pIC50 with HLA-A*23:01 was 6.33; in the assay with HLA-A*24:02, 6.11.

TFEFTSFFY: the pIC50 is 4.92 with HLA-A*01:01 [35], 6.40 with HLA-A*26:01 [36], 10.00 with HLA-A*29:02 [15] and 6.37 with HLA-A*30:02 [37].

As for TLARSICEK, the pIC50 in the assay with HLA-A*31:01 [38] was 5.09; in the assay with HLA-A*68:01 [39], 5.84; with HLA-A*03:01 [26], 6.90; in the assay with HLA-A*11:01 [34] it was 6.56.

Consider VSDGGPNLY, for which the negative logarithm of the IC50 (pIC50) in the assay with HLA-A*26:01 [12] is 4.59; in the assay with HLA-A*29:02 [40] it was 5.67; with HLA-A*30:02 [13] it was 5.66.

Take YERMCNILKG: the pIC50 was 5.65 in the assay with HLA-B*40:01 [2]; 5.73 in the assay with HLA-B*44:02 [3]; 5.52 with HLA-B*44:03 [4]; 4.70 in the assay with HLA-B*45:01 [8]; 6.15 with HLA-B*18:01 [20]; 6.84 in the assay with HLA-B*40:02 [5].
